# B1: His8-LptB^E163Q (enzyme, E. coli, UniProt P0A9V1 1-241, looked up)
# chain: MATLTAKNLAKAYKGRRVVEDVSLTVNSGEIVGLLGPNGAGKTTTFYMVVGIVPRDAGNIIIDDDDISLLPLHARARRGIGYLPQEASIFRRLSVYDNLMAVLQIRDDLSAEQREDRANELMEEFHIEHLRDSMGQSLSGGERRRVEIARALAANPKFILLDQPFAGVDPISVIDIKRIIEHLRDSGLGVLITDHNVRETLAVCERAYIVSQGHLIAHGTPTEILQDEHVKRVYLGEDFRL
# notes: catalytically dead E163Q variant; the CTD is fully resolved up to L241, the last residue of LptB; A TEV protease cleavage site stands between the His8 tag and LptB; no TEV cleavage is described; also called His8TEV-LptB(E163Q); His-LptB(E163Q); source: E. coli KRX, pET28b(+)-His8TEV-LptB(E163Q), purified (Ni-NTA, gel filtration on Superdex 200); not shown: His8, N-terminal, kept
# Biological target: the molecule itself
# Assay: crystal structure; ATP-bound His8-LptB^E163Q, 1.96 Å; hanging drops, reservoir 28% PEG 4000, 100 mM MES pH 6.75, 600 mM NaCl; space group C222(1)
protein,measurement,value
B1,stoichiometry N,2

# Source: paper PMC6703430, “Combining Mutations That Inhibit Two Distinct Steps of the ATP Hydrolysis Cycle Restores Wild-Type Function in the Lipopolysaccharide Transporter and Shows that ATP Binding Triggers Transport” (mBio, 2019)
